This note sets out measurements from CN114805568A (BEIJING KENUO XINCHENG TECH CO LTD, dated 2022).

“And” between values parts separate entries of the source, which are not always exact repeats. Equal entries are not always repeated.

Assay [1] addresses T1, LILRB2-mFc(NCBI号:AAH36827，22-461氨基酸) (UniProt Q8N423 22-461).
T1 construct: range 22-461; also called 重组LILRB2; not shown: mouse Fc (mFc)
The assay can be described thus: blocking ELISA: LILRB2-mFc binding to coated HLA-G.

Assay [2] addresses T2, LILRB2重组蛋白(购于ACRO，Cat# LI2-H5220) (UniProt Q8N423 22-461).
T2 construct: Bought reagent; Used as analyte at '60nm' in BLI
In words: BLI (Octet QKe), antibody captured on AHC probe, LILRB2 as analyte, 1:1 fit. A general note: Biolayer interferometry detects binding as a change in optical thickness at a sensor tip.

B1: JTX-8064 (antibody, V domains shown)
VH: QITLKESGPTLVKPTQTLTLTCTFSGFSLNTYAMGVSWIRQPPGKALEWLASIWWNGNKYNNPSLKSRLTVTKDTSKNQVVLTMTNMDPVDTATYYCAHSRIIRFTDYVMDAWGQGTLVTVSS
VL: DIQMTQSPSSLSTSVGDRVTITCRASEDIYNDLAWYQQKPGKAPKLLIYNANSLHTGVASRFSGSGSGTDFTFTISSLQPEDVATYFCQQYYDYPLTFGQGTKLEIK
notes: expressed in HEK293, Protein A purified; also called 对照抗体
B1: the IC50 – broadly, the concentration that inhibits the measured activity by half – in assay [1] is 0.86 nM and 1 nM. In addition, in assay [2], the Kd (usually the constant that tells how readily two partners part at equilibrium) came to 4.93 nM; the koff (usually the rate constant with which the complex falls apart) was 0.00211 s⁻¹; the kon (in general, the rate constant with which the complex forms) came out at 428000 M⁻¹ s⁻¹.
